From patent publication US6013258A, “Immunogenic peptides from the HPV E7 protein” (priority 1997, dated 2000) come the findings set out here.

This test addresses T1, recombinant HLA-A2 (Homo sapiens, UniProt P04439, D140Y/D185E/D98H/E176V/E277Q/G131W/G231S/I119V/I121R/I166T/I218V/N151K/N90K/P208A/P217A/Q86G/Q94H/R138H/R169H).
T1 construct: made in house; host or cells: E. coli
Format: binding. The settings on record: peptide-HLA-A2 complex, monitored by circular dichroism. On the technique in general: CD spectra are sensitive to the conformation of chiral molecules.

With “A2.2: peptide derived from HPV strain 16 E7 protein, SEQ ID NO:17 (YMLDLQPET) [Peptide A2.2]”, the “Tm (temperature at which 50% of the refolded complexes are melted)” value was 52.5 degrees Celsius.
